Measured values reported in PMC10166511, “Fast cross-linking by DOPA2 promotes the capturing of a stereospecific protein complex over nonspecific encounter complexes” (Biophysics Reports, 2022).

Target: T1, EIIA^Glc (UniProt P69783 2-169)
T1 construct: EIIA^Glc, functional subunit of Enzyme II of the bacterial glucose phosphotransferase system; Species is stated only for enzyme I (E. coli); source: purified as previously described (Garrett et al. 1999; Xing et al. 2014)
Test: SPR + ELISA; no accurate KD obtained; format and conditions not told
Conditions: both partners purified

T1 sequence (P69783 2-169): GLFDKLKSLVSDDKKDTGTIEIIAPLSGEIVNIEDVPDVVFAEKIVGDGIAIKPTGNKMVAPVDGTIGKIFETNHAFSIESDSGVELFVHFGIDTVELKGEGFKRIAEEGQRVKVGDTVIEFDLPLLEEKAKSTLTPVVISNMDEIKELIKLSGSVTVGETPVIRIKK

B1: EIIB^Glc (domain or fragment)
chain: EDATEDAKATGTSEMAPALVAAFGGKENITNLDACITRLRVSVADVSKVDQAGLKKLGAAGVVVAGSGVQAIFGTKSDNLKTEMDEYIRN
notes: EIIB^Glc, functional subunit of Enzyme II of the bacterial glucose phosphotransferase system; Species is stated only for enzyme I (E. coli); source: purified as previously described (Garrett et al. 1999; Xing et al. 2014)
  Kd: > 10 µM
